Consider one molecule from patent US20100229252, “MEGANUCLEASE VARIANTS CLEAVING A DNA TARGET SEQUENCE FROM THE HUMAN HEMOGLOBIN BETA GENE AND USES THEREOF” (CELLECTIS, published 2010).

Test in all cases: cell_activity; CHO extrachromosomal LacZ assay
Data set [1] concerns the target T1, I-CreI heterodimer HBB5.3_E3 / HBB5.4_A5 (Chlamydomonas reinhardtii, UniProt P05725;P05725 SEQ:1-167,SEQ:1-167).
T1 chain 1: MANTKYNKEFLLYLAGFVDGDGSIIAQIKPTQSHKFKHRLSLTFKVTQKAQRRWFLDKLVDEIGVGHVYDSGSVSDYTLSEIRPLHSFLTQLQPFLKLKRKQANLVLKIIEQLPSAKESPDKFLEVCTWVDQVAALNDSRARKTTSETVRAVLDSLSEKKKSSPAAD
T1 chain 2: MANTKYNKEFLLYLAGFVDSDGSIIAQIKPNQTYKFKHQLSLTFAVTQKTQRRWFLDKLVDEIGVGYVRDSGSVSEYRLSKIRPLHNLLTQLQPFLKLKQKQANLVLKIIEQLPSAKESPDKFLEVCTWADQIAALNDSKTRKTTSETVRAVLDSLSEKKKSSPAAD
The protocol: (§1) Several I-CreI refined mutants able to efficiently cleave the HBB 5 target in yeast when forming heterodimers were identified in example 7. In order to validate and characterize the heterodimer displaying the maximal efficacy to cleave the HBB 5 sequence in CHO cells, the efficiency of combinations of mutants able to cut the HBB 5 target were tested using an extrachromosomal assay in mammalian cells.
(§2) CHO cells were transfected with Polyfect® transfection reagent according to the supplier's protocol (QIAGEN). 72 hours after transfection, culture medium was removed and 150 μl of lysis/revelation buffer for β-galactosidase liquid assay was added (typically 1 liter of buffer contained: 100 ml of lysis buffer (Tris-HCl 10 mM pH7.5, NaCl 150 mM, Triton X100 0.1%, BSA 0.1 mg/ml, protease inhibitors), 10 ml of Mg 100×buffer (MgCl₂ 100 mM, β-mercaptoethanol 35%), 110 ml ONPG 8 mg/ml and 780 ml of sodium phosphate 0.1M pH7.5). After incubation at 37° C., OD was measured at 420 nm. The entire process was performed on an automated Velocity11 BioCel platform. Per assay, 150 ng of target vector was cotransfected with 12.5 ng of each HBB5 mutant expression vector (12.5 ng of vector encoding the mutant cleaving the palindromic HBB5.3 target and 12.5 ng of vector encoding the mutant cleaving palindromic HBB5.4 target).

Data set [2] concerns the target T2, I-CreI heterodimer HBB5.3_A3 / HBB5.4_B1 (Chlamydomonas reinhardtii, UniProt P05725;P05725 SEQ:1-167,SEQ:1-167).
T2 chain 1: T1 chain 1 with A50T
T2 chain 2: T1 chain 2 with I25V, R83K, L88F, A130V
As to the method: as §1, §2

Data set [3] has as its target T3, I-CreI heterodimer HBB5.3_A2 / HBB5.4_A5 (Chlamydomonas reinhardtii, UniProt P05725;P05725 SEQ:1-167,SEQ:1-167).
T3 chain 1: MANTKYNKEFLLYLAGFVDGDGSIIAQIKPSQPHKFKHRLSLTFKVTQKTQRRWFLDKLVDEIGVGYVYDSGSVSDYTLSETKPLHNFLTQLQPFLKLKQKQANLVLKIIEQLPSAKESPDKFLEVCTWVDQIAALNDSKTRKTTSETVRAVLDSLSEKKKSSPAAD
T3 chain 2: T1 chain 2
The protocol:
as §1, §2

The target in data set [4] is T4, I-CreI heterodimer HBB5.3_B2 / HBB5.4_A6 (Chlamydomonas reinhardtii, UniProt P05725;P05725 SEQ:1-167,SEQ:1-167).
T4 chain 1: T3 chain 1 with K35R
T4 chain 2: T1 chain 2 with R83K, H86R, K97R, A130V, K140R
The protocol: as §1, §2

Data set [5] addresses T5, I-CreI heterodimer HBB5.3_B2 / HBB5.4_B1 (Chlamydomonas reinhardtii, UniProt P05725;P05725 SEQ:1-167,SEQ:1-167).
T5 chain 1: T3 chain 1 with K35R
T5 chain 2: T1 chain 2 with I25V, R83K, L88F, A130V
As to the method:
as §1, §2

Data set [6] concerns the target T6, I-CreI heterodimer HBB5.3_E3 / HBB5.4_A6 (Chlamydomonas reinhardtii, UniProt P05725;P05725 SEQ:1-167,SEQ:1-167).
T6 chain 1: T1 chain 1
T6 chain 2: T1 chain 2 with R83K, H86R, K97R, A130V, K140R
As to the method: as §1, §2

Data set [7] has as its target T7, I-CreI heterodimer HBB5.3_A3 / HBB5.4_A5 (Chlamydomonas reinhardtii, UniProt P05725;P05725 SEQ:1-167,SEQ:1-167).
T7 chain 1: T1 chain 1 with A50T
T7 chain 2: T1 chain 2
As to the method:
as §1, §2

Data set [8] addresses T8, I-CreI heterodimer HBB5.3_E3 / HBB5.4_B1 (Chlamydomonas reinhardtii, UniProt P05725;P05725 SEQ:1-167,SEQ:1-167).
T8 chain 1: T1 chain 1
T8 chain 2: T1 chain 2 with I25V, R83K, L88F, A130V
The protocol: as §1, §2

Data set [9] concerns the target T9, I-CreI heterodimer HBB5.3_B2 / HBB5.4_A5 (Chlamydomonas reinhardtii, UniProt P05725;P05725 SEQ:1-167,SEQ:1-167).
T9 chain 1: T3 chain 1 with K35R
T9 chain 2: T1 chain 2
The protocol: as §1, §2

In data set [10] the target is T10, I-CreI heterodimer HBB5.3_A2 / HBB5.4_B1 (Chlamydomonas reinhardtii, UniProt P05725;P05725 SEQ:1-167,SEQ:1-167).
T10 chain 1: T3 chain 1
T10 chain 2: T1 chain 2 with I25V, R83K, L88F, A130V
The protocol: as §1, §2

Where a chain is given by its changes, count along the chain named.

B1: HBB5 (dsDNA)
DNA 1: CAAGACAGGTTTAAGGAGACCA
DNA 2: TGGTCTCCTTAAACCTGTCTTG
Regarding B1, the activity in data set [1] was found to be 0.46 absorbance units; in [2], 0.2 absorbance units; in data set [3], 0.78 absorbance units; in [4] it was 0.54 absorbance units; in [5] it was 0.33 absorbance units; in [6] it was 0.71 absorbance units. For the same molecule, the activity amounted to 0.86 absorbance units in data set [7], 0.37 absorbance units in data set [8], 0.5 absorbance units in data set [9] and 0.42 absorbance units in data set [10].
